Measurements taken from US7459156 (University of California, dated 2008).

Assays:
[1] = target: T1, rat trkA receptor (full length, 140 kD) (rat, UniProt P35739 33-799); experiment: equilibrium ^125I-NGF binding to PC12 cells, Scatchard/LIGAND; control IgG present; high affinity site
T1 construct: whole, on cells; also called p140trk; native trkA receptor protein
Method: (§1) Binding Assays. […] Nonspecific binding was determined by addition of […] unlabeled NGF, and ranged from 2-25% of specific binding. Determinations were made in triplicate. The equilibrium binding data from two experiments were combined for the Scatchard analysis (Scatchard, G., *Analys of NY Acad. Sciences* 5:660-672 (1949)), which was performed with the program LIGAND (Munson, P. J. and Rodbard, D., *Anal. Biochem.*, 107, 220-239 (1980)). The Scatchard data are plotted as fmoles bound per 10^5 cells (equivalent to a volume of 2×10^-4 liters).
(§2) To analyze the characteristics of the NGF binding sites remaining in the presence of the anti-LNGFR or -trkA antibodies, equilibrium binding assays were performed from 3.5 to 4000 pM NGF. The results are plotted by the Scatchard method in FIG. 2. As is now well known, PC12 cells have NGF binding sites with differing kinetic characteristics, leading to low and high affinity binding sites (Schechter and Bothwell, 1981). This is observed in the biphasic graph of NGF binding determined in the presence of control IgG (FIG. 2, open squares; the binding parameters are presented in Table 1).
(§3) FIG. 2 is an analysis of anti-LNGFR- and RtrkA.EX-resistant NGF binding sites. […] Nonspecific binding was determined as in FIG. 1A; values were determined in triplicate.

[2] = target: T1, rat trkA receptor (full length, 140 kD); experiment: equilibrium ^125I-NGF binding to PC12 cells, Scatchard/LIGAND; 500 ug/ml anti-LNGFR IgG present; remaining high affinity site
Method: as §1, §2, §3

[3] = target: T2, low affinity nerve growth factor receptor (LNGFR) on PC12 cells (rat, UniProt P07174 30-425); experiment: equilibrium ^125I-NGF binding to PC12 cells, Scatchard/LIGAND; control IgG present; low affinity site
T2 construct: whole, on cells
T2 sequence (looked up): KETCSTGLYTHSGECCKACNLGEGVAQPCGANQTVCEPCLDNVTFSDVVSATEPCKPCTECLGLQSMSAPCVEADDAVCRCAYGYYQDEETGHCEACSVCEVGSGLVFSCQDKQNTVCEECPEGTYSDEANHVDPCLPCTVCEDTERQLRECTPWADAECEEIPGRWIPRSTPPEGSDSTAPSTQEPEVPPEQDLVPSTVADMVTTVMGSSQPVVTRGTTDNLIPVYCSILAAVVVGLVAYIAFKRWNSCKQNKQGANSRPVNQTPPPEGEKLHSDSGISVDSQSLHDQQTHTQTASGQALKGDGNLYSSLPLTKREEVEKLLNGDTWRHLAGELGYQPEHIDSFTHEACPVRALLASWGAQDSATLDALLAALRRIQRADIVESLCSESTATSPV
Method: as §1, §2, §3

[4] = target: T2, low affinity nerve growth factor …; experiment: equilibrium ^125I-NGF binding to PC12 cells, Scatchard/LIGAND; 500 ug/ml RtrkA.EX IgG present; remaining low affinity site
Method: as §1, §2, §3

T1 sequence (P35739 33-799): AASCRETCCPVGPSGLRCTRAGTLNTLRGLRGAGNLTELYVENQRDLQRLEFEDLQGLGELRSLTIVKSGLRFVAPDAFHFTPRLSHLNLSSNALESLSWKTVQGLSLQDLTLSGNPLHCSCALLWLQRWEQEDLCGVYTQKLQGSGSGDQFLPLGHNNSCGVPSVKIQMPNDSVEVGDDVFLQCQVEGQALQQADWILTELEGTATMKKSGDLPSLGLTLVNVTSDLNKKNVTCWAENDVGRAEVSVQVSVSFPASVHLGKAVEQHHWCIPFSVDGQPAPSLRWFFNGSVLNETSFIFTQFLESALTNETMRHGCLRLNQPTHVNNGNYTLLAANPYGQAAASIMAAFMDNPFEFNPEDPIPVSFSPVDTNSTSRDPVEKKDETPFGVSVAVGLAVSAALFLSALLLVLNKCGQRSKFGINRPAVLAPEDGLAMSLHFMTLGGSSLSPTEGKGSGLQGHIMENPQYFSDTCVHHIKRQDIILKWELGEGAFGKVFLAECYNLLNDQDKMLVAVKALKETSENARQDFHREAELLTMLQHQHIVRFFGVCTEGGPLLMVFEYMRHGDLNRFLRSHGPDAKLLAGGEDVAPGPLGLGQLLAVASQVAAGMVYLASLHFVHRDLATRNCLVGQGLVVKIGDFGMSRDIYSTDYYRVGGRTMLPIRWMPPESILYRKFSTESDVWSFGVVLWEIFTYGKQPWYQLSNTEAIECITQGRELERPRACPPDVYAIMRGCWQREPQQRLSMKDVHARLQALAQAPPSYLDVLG

B1: nerve growth factor (NGF) (ligand, mouse, UniProt P01139 122-241, looked up)
chain: SSTHPVFHMGEFSVCDSVSVWVGDKTTATDIKGKEVTVLAEVNINNSVFRQYFFETKCRASNPVESGCRGIDSKHWNSYCTTTHTFVKALTTDEKQAAWRFIRIDTACVCVLSRKATRRG
modifications: 125I label on the NGF used in the binding assays
notes: mature; The species is stated only for the unlabelled NGF; the labelled NGF was bought
Kd [1]: 0.038 nM | Kd [2]: 0.092 nM | Kd [3]: 1.8 nM | Kd [4]: 1.1 nM
